# Legend:
# [1] = target: hCA-IX expressed on cells (SKRC52, SKRC59, 67NR^hCA-IX) (human) (UniProt Q16790); assay: Plate-based cell binding assay, one site specific binding fit; cell line not given
# [2] = target: hCA-IX expressed on cells (SKRC52, SKRC59, 67NR^hCA-IX) (human) (UniProt Q16790); assay: plate-based cell binding assay, mean fluorescent intensity per cell area, SKRC52 (hCA-IX high) cells
substance,measurement,setting,value
cG250 full sized antibody (FSA),Bmax (mean fluorescent intensity per cell area),[1],575
same,Kd,[1],1.29 nM
same,EC50 (read off the curve),[2],1 nM
